Experimental data reported in publication PMC9091920 (Journal of Pharmaceutical Analysis, 2021).

Tests used:
[1] = biological target: recombinant human interferon α2b (human) (UniProt P01563); experiment: BLI
[2] = biological target: recombinant human interferon α2b (human) (UniProt P01563); experiment: far-Western, overlay or dot blot
[3] = biological target: recombinant human interferon α2b (human) (UniProt P01563); experiment: lateral-flow immunochromatographic strip

- Kd [1]: 2.06 nM
- limit of detection [2]: 31.2 ng
- limit of detection [3]: 1 µg/mL
B1: nanobody I22 (His-labeled, purified) (VHH)
VHH: QVQLVESGGGLVQPGGSLRLSCVASGFTFDSATMSWHRQAPGREREFVAMTSGGGMINYANSVKGRFTISRDNAKNTVYLQMDSLKPEDTAVYYCHRLGTFHWGQGTQVTVSS
